The target in this assay is HAMA血清タイプ1(Roche製、品番:1767275). Kind of assay: forward sandwich ELISA, inhibition of HAMA bridging of anti-hCEA antibodies, blocker solution at 1 ug/ml.

Substance マウスIgG(CHEMICON製、品番:PP54) (antibody) showed a HAMA回避効果 of 61%.

“Heterophilic Blocking Reagent1 (SCANTIBODIES LABORATORY，INC.製、品番:3KC534−075)” showed a HAMA回避率 of 68%.

In the case of “MAK33−IgG1(Roche製、品番:1200941) (antibody)”, the HAMA回避率 is 69%.

For the origin of these results see JP2011016773A.
